{"source": "paper PMC4244111", "about": "“Structure of Putrescine Aminotransferase from Escherichia coli Provides Insights into the Substrate Specificity among Class III Aminotransferases” (PLoS ONE, 2014)", "biological_target": "the molecule itself", "assay": "crystal structure; crystals by hanging-drop vapour diffusion at 22°C (15% PEG 3350, 0.2 M sodium formate, 0.1 M HEPES pH 7.5); free enzyme at 2.3 Å and putrescine-soaked at 2.1 Å; four molecules in the asymmetric unit; dimer interface analysed with PISA", "data": [{"protein": "YgjG putrescine aminotransferase from Escherichia coli (enzyme, UniProt P42588 1-459, looked up, PLP covalently linked to Lys300 via a Schiff base linkage (free enzyme), YgjG putrescine aminotransferase (EC 2.6.1.82), Escherichia coli; The seven N-terminal and one C-terminal residues and the His tag are not visible in the electron density; also called PATase; source: E. coli B834(DE3), purified (Ni-NTA, ion-exchange chromatography, size-exclusion chromatography); not shown: His6, C-terminal, kept) MNRLPSSASALACSAHALNLIEKRTLDHEEMKALNREVIEYFKEHVNPGFLEYRKSVTAGGDYGAVEWQAGSLNTLVDTQGQEFIDCLGGFGIFNVGHRNPVVVSAVQNQLAKQPLHSQELLDPLRAMLAKTLAALTPGKLKYSFFCNSGTESVEAALKLAKAYQSPRGKFTFIATSGAFHGKSLGALSATAKSTFRKPFMPLLPGFRHVPFGNIEAMRTALNECKKTGDDVAAVILEPIQGEGGVILPPPGYLTAVRKLCDEFGALMILDEVQTGMGRTGKMFACEHENVQPDILCLAKALGGGVMPIGATIATEEVFSVLFDNPFLHTTTFGGNPLACAAALATINVLLEQNLPAQAEQKGDMLLDGFRQLAREYPDLVQEARGKGMLMAIEFVDNEIGYNFASEMFRQRVLVAGTLNNAKTIRIEPPLTLTIEQCELVIKAARKALAAMRVSVEEA", "values": [{"measurement": "stoichiometry N", "value": 2}]}]}
